Data reported in the DeepSol protein solubility set.

assay: soluble on expression in E. coli; label from the status in PepcDB or PDB records

**Q.** Which “soluble on expression in E. coli” value does the source give for “MSLSTARIMLVDDHPIVREGYRRLIERRPGYAVVAEAADAGEAYRLYRETTPDIVVMDLTLPGPGGIEATRHIRQWDGAARILIFTMHQGSAFALKAFEAGASGYVTKSSDPAELVQAIEAILAGRRAMSPDIAQEIAEERVEGRATAIADLSPRETEILRMLASGMTSDEIAAGLCLSVKTVQNNHYQIKAKLGARTDAHLVWVAIEAGLVREGHHHHHH” here?
**A.** soluble

**Q.** With “SNAYRGPEAFLKLPKDLKDREALQDIMQDIGNSDDILAAVVLSATPGAVEAFRKNGETIRITGDGLKAAHRFLSNDPKIGEKRIRPGALIRVKKTEKGSWQIVQLP” as the sequence, how does the “soluble on expression in E. coli” value read?
**A.** soluble

**Q.** Which “soluble on expression in E. coli” value does the source give for “AAEKTGKCRVVTTTGTADWSVRESFNNYLEGPIANGAAYKYHGGIEVRDGVETTGTKSAREFTWPVLGSEEGAVKLGGGVHWTGHNHYSGDDESQAPDNFILDLDFSNPTVKFDGNEGTLLVDFKSREFVDTKTVADFLTGTQAELATITFDEPIDLTQENVTVTGQTKLTATGVDVMGTFYPEGEALAPITLNLTN” here?
**A.** not soluble

**Q.** For “MGSDKIHHHHHHMDRLQLLEYWLKALYPDQPCTLSPASADASFRRYFRASLPGKTLIVMDAPPQQEDCRPFLHAASIFSRASVHVPAIVAQDLNQGFLLLSDLGTTTYLQALTAAPENANRLYQDAIDALIKIQCASQKNIFPEYDRILLSRELELFPDWYMTRHLHAPPDDDQKNTLKTVFNLILANNLAQPQVFVHRDYHSRNLMVSTPNPGIIDFQDAVLGPITYDLVSLFKDAYIQWEEAQILDWMIRYWEKARHAGLPVATDFSIFYRDFEWMGVQRHLKVLGIFARLCYRDNKPTYLQDMPAIMQYLRQTCERYSELHPLSRLLDRLEDRQAETGYTF”, which “soluble on expression in E. coli” value is on record?
**A.** not soluble

**Q.** For “MKKLTLREQQLVCLNILDYFHALCERYKISYSLGGGTLIGAIRHKGFIPWDDDIDVYMHRDEYQRFVDVWFQETHEHYNMETAEDILAQYTGEMAKIFDCRTQITDAKGRKSPMFMDIFIYDGVPNEPKIIYPLMKKHRRIKLRFSSCKKRWLRAKENTVQKAILNKLSHFLFSKMQKNLAQFQIKYPIKQCDYIGLVLSDYGGWQKSYMPKEYFNHVIYKEFEGRQFQVMNGYHEHLTQYYGDYMKLPPEEDQKPHHIQEAYILLEHHHHHH”, which “soluble on expression in E. coli” value is on record?
**A.** not soluble

**Q.** Which “soluble on expression in E. coli” value does the source give for “MEIKRQQEIVEAYHYDMRVPDSEVETDLRVSFSPIEVEEENYPENSSALVARLEFRIVFDEFVLSGAISQINHIIDRKIEKQEDISQEEVDELVRPLFSIVERLSYEVTEIALDRPGVQLNFQQSEEA” here?
**A.** not soluble

**Q.** With “SETETKTLPLENASILSEGSLQEGHRLWIGNLDPKITEYHLLKLLQKFGKVKQFDFLFHKSGALEGQPRGYCFVNFETKQEAEQAIQCLNGKLALSKKLVVRWAHAQVKRYDHNKNDKILPISLEPSSSTEPAQSNLSVTAKIKAIEAKLKMMAENPDAEYPAAPVYSYFKPPDKKRTTPYSRTAWKSRR” as the sequence, how does the “soluble on expression in E. coli” value read?
**A.** soluble

**Q.** For “EASLTGAGATFPAPVYAKWADTYQKETGNKVNYQGIGSSGGVKQIIANTVDFGASDAPLSDEKLAQEGLFQFPTVIGGVVLAVNIPGLKSGELVLDGKTLGDIYLGKIKKWDDEAIAKLNPGLKLPSQNIAVVRRADGSGTSFVFTSYLAKVNEEWKNNVGTGSTVKWPIGLGGKGNDGIAAFVQRLPGAIGYVEYCYAKQNNLAYTKLISADGKPVSPTEENFANAAKGADWSKTFAQDLTNQKGEDAWPITSTTFILIHKDQKKPEQGTEVLKFFDWAYKTGAKQANDLDYASLPDSVVEQVRAAWKTNIKDSSGKPLY”, which “soluble on expression in E. coli” value is on record?
**A.** soluble

**Q.** Which “soluble on expression in E. coli” value does the source give for “MNNNLLIIAGPTAVGKSDLSVDLAKKLNGEIISVDSMQIYKYMDIGSAKISKEEMGGIPHYLIDFVDPSKEFSVAEFKDLTTEKIKDIQSRGKLPILVGGTGLYINSIICNMNFAESDKDEEYREELEKIANEHGNEYLHEMLKDIDLESYNSIHFNNRKRVIRALETYKLTGKPFSSFKAKNSIYETPYNIYYYVLNMDRAKLYDRINKRVDIMFEKGLLEEVKNLKAMGLTDDMQSMKGIGYKEVLYYLDGKISLEQCIEMIKQGSRNYAKRQLTWFRKDPRAIFIDKDTFASEEDISSKIINDIINSMAGDPNSLEHHHHHH” here?
**A.** not soluble

**Q.** For “HVFVVDFNGSIDAKEVSSLREEVSAILSVAKPEDEVFVRLESGGGMVHGYGLASSQLDRIRQHNIPLTVSVDKVAASGGYMMACVANNIISAPFAILGSIGVIAQVPNFNKLLKKHDIDFEQFTAGEFKRTVTMFGENTEKGKEKFIEELEETHVLFKNFVSERRPSLDIVKVATGEHWFGTTALELGLVDSIQTSDD”, which “soluble on expression in E. coli” value is on record?
**A.** not soluble

**Q.** Which “soluble on expression in E. coli” value does the source give for “MLPCRANCFTLEISLMHINIAWQDVDTVLLDMDGTLLDLAFDNYFWQKLVPETWGAKNGVTPQEAMEYMRQQYHDVQHTLNWYCLDYWSEQLGLDICAMTTEMGPRAVLREDTIPFLEALKASGKQRILLTNAHPHNLAVKLEHTGLDAHLDLLLSTHTFGYPKEDQRLWHAVAEATGLKAERTLFIDDSEAILDAAAQFGIRYCLGVTNPDSGIAEKQYQRHPSLNDYRRLIPSLM” here?
**A.** not soluble

**Q.** Which “soluble on expression in E. coli” value does the source give for “MEQKFCQSCGMPLNPEVLGTEKDGSKNEEYCTYCYADGHFTVECTMDEMINQCAQFVDEFNKGSEVKMTKEEAIANMKQFFPMLKRWKQ” here?
**A.** not soluble

**Q.** Which “soluble on expression in E. coli” value does the source give for “MPQVQSWFPVQKQPTLAVTFTPLPQLSHAHLPLPPSHLVTKTDAMFQHQLLPTQLQPFPPNHTPLLLLLTVTTMAVTPRLSLLNVLKKLQQPPFLQNHTLLLPLLTVTTTAVTPRLSLPRLPNKHHWPLAQSPSLLLQLLILLLPAPSLVLSFNPKVWLLV” here?
**A.** not soluble

**Q.** With “MSLQENRLKYCIQRMATVFEVSLSGYYDWLKRGMSKRKQHHNRCELLVKSAHMDTQQSYGHERLHQHLTSQGHDISLYMVRQIKQEHGIYCKRHKRSKVTTDSNHNKPVYPNLLEQQFDVAAPNIAWVSDITYIWTNEGWVYLAAFKDLYSKEIVGYALNKRMTADLVCEALNNAIKYKRPARGLIVHSDRGSQYCSHQYRQIIDKYGFAGSMSRKGNCYDNAPIESFWGQLKNELIYHKVYETRDEAIKDVVRYIEIFYNRQRIQKGLGFKSPTQVFQDFYRQAAEGHHHHHH” as the sequence, how does the “soluble on expression in E. coli” value read?
**A.** not soluble

**Q.** Which “soluble on expression in E. coli” value does the source give for “SLRGWRGLRVYDMHVHLHEYSDREVEEILDADKSLVVVAVSDDLESAWRTLDLWHTFGGRVVPCLGFHPWNVREGRVWEAWEVLRLAYRYGVPCLGEVGLDRRFVDEYTWRVQNEVFDAFVQLAEDMGVMLNIHAPDAWKHVAHRIGWTSRARFMYHWYTGPATLPRALPEGRVWFSINSAIRVQEKSVRVAREIPLRSLVVESDGPYNYRGLRLSPLMVRETVKLVAEARGEDPGRLMEAISLNSERLLGLL” here?
**A.** soluble

**Q.** Which “soluble on expression in E. coli” value does the source give for “MSSSPVKRQRMESALDQLKQFTTVVADTGDFHAIDEYKPQDATTNPSLILAAAQMPAYQELVEEAIAYGRKLGGSQEDQIKNAIDKLFVLFGAEILKKIPGRVSTEVDARLSFDKDAMVARARRLIELYKEAGISKDRILIKLSSTWEGIQAGKELEEQHGIHCNMTLLFSFAQAVACAEAGVTLISPFVGRILDWHVANTDKKSYEPLEDPGVKSVTKIYNYYKKFSYKTIVMGASFRNTGEIKALAGCDFLTISPKLLGELLQDNAKLVPVLSAKAAQASDLEKIHLDEKSFRWLHNEDQMAVEKLSDGIRKFAADAVKLERMLTERMFNAENGK” here?
**A.** soluble

**Q.** For “MGSDKIHHHHHHAFTTGENDPFIKSPTVAKLTNTPNGPLISCDLKALKDTVNFPLSQLTEELQIVKLDNRDEALIGGWIRTTVGEKYILVSNNKQTPYKLFDRTGKFITNIGSYGQGPNEYLNTYAEQLDEANNRIYILPWQSSKILVFDLKGNALDPIPLCLRVPKGKFRVNTAKSEVTVTVLPFPKWPAVVWTQDLKGKRKNFVAPGSLAMPQDFSNEVSMGNNTAAYDVMLMKIMPQPSVDTLYHYNAASNKLEGRFTVKYPSNDKIPWHAYYEIPKYFIGDVSFPIQIDESTFSGSKPAYYMVDKKTLHGNYVRLYNDFISTPSQTIYPSFNNGYYVTNMEPMALKEILEKEVNKKGLTADKKKKVQNLIKTLNDNDNNIVMFAKLKQ”, which “soluble on expression in E. coli” value is on record?
**A.** not soluble

**Q.** Which “soluble on expression in E. coli” value does the source give for “MTINTEVFIRRNKLRRHFESEFRQINNEIREASKAAGVSSFHLKYSQALLDRAIQREIDETYVFELFHKIKDHVLEVNEFLSMPPRPDIDEDFIDGVEYRPGRLEITDGNLWLGFTVCKPNEKFKDPSLQCRMAIINSRRLPGKASKAVIKTQ” here?
**A.** soluble
